Laboratory results taken from patent publication US10130693B2, “Peptides, combination of peptides and scaffolds for use in immunotherapeutic treatment of various cancers” (Immatics Biotechnologies GmbH, priority 2015, dated 2018).

biological target: HLA-A*02:01 (Homo sapiens, UniProt P04439, D140Y/D185E/D98H/E176V/E277Q/G131W/G231S/I119V/I121R/I166T/I218V/L300P/L318F/N151K/N90K/P208A/P217A/Q86G/Q94H/R138H/R169H/T345S); assay: MHC binding assay, UV-ligand exchange with beta2m ELISA (exchange yield), HLA-A*02; settings: binding to HLA-A*02 ranged by peptide exchange yield
Source text: Candidate peptides for T cell based therapies according to the present invention were further tested for their MHC binding capacity (affinity). The individual peptide-MHC complexes were produced by UV-ligand exchange, where a UV-sensitive peptide is cleaved upon UV-irradiation, and exchanged with the peptide of interest as analyzed. Only peptide candidates that can effectively bind and stabilize the peptide-receptive MHC molecules prevent dissociation of the MHC complexes. To determine the yield of the exchange reaction, an ELISA was performed based on the detection of the light chain (β2m) of stabilized MHC complexes. The assay was performed as generally described in Rodenko et al. (Rodenko et al., 2006).
96 well MAXISorp plates (NUNC) were coated over night with 2 ug/ml streptavidin in PBS at room temperature, washed 4× and blocked for 1 h at 37° C. in 2% BSA containing blocking buffer. […] Peptide-MHC monomers of the UV-exchange reaction were diluted 100 fold in blocking buffer. Samples were incubated for 1 h at 37° C., washed four times, incubated with 2 ug/ml HRP conjugated anti-β2m for 1h at 37° C., washed again and detected with TMB solution that is stopped with […]. Absorption was measured at 450 nm. Candidate peptides that show a high exchange yield (preferably higher than 50%, most preferred higher than 75%) are generally preferred for a generation and production of antibodies or fragments thereof, and/or T cell receptors or fragments thereof, as they show sufficient avidity to the MHC molecules and prevent dissociation of the MHC complexes.

Row | Peptide exchange (MHC class I binding score) | Substance
1 | ++ (20%-49% = ++) | 1 (PLWGKVFYL; listed as Homo sapiens) [compound 1]
2 | +++ (50%-75% = +++) | 3 (TLLGKQVTL; listed as Homo sapiens) [compound 3]
3 | +++ (50%-75% = +++) | 4 (ELAEIVFKV; listed as Homo sapiens) [compound 4]
4 | +++ (50%-75% = +++) | 5 (SLFGQEVYC; listed as Homo sapiens) [compound 5]
5 | +++ (50%-75% = +++) | 6 (FLDPAQRDL; listed as Homo sapiens) [compound 6]
6 | ++ (20%-49% = ++) | 10 (KTLDVFNIIL; listed as Homo sapiens) [compound 10]
7 | ++ (20%-49% = ++) | 11 (GVLKVFLENV; listed as Homo sapiens) [compound 11]
8 | ++ (20%-49% = ++) | 12 (GLIYEETRGV; listed as Homo sapiens) [compound 12]
9 | +++ (50%-75% = +++) | 13 (VLRDNIQGI; listed as Homo sapiens) [compound 13]
10 | ++ (20%-49% = ++) | 14 (LLDHLSFINKI; listed as Homo sapiens) [compound 14]
11 | ++ (20%-49% = ++) | 16 (HLYNNEEQV; listed as Homo sapiens) [compound 16]
12 | +++ (50%-75% = +++) | 18 (YVLNEEDLQKV; listed as Homo sapiens) [compound 18]
13 | +++ (50%-75% = +++) | 19 (TLLPTVLTL; listed as Homo sapiens) [compound 19]
14 | +++ (50%-75% = +++) | 20 (ALDGHLYAI; listed as Homo sapiens) [compound 20]
15 | ++++ (>=75% = ++++) | 21 (SLYHRVLLY; listed as Homo sapiens) [compound 21]
16 | ++++ (>=75% = ++++) | 22 (MLSDLTLQL; listed as Homo sapiens) [compound 22]
17 | + (<20% = +) | 23 (AQTVVVIKA; listed as Homo sapiens) [compound 23]
18 | +++ (50%-75% = +++) | 24 (FLWNGEDSAL; listed as Homo sapiens) [compound 24]
19 | ++ (20%-49% = ++) | 25 (IQADDFRTL; listed as Homo sapiens) [compound 25]
20 | +++ (50%-75% = +++) | 26 (KVDGVVIQL; listed as Homo sapiens) [compound 26]
21 | +++ (50%-75% = +++) | 27 (KVFGDLDQV; listed as Homo sapiens) [compound 27]

Row | Peptide exchange (MHC class I binding score) | Substance
22 | +++ (50%-75% = +++) | 28 (TLYSMDLMKV; listed as Homo sapiens) [compound 28]
23 | +++ (50%-75% = +++) | 29 (TLCNKTFTA; listed as Homo sapiens) [compound 29]
24 | ++++ (>=75% = ++++) | 31 (ALSDETKNNWEV; listed as Homo sapiens) [compound 31]
25 | +++ (50%-75% = +++) | 32 (ILADEAFFSV; listed as Homo sapiens) [compound 32]
26 | +++ (50%-75% = +++) | 33 (LLLPLLPPLSPSLG; listed as Homo sapiens) [compound 33]
27 | ++ (20%-49% = ++) | 35 (YVLPKLYVKL; listed as Homo sapiens) [compound 35]
28 | ++++ (>=75% = ++++) | 36 (KLYGIEIEV; listed as Homo sapiens) [compound 36]
29 | +++ (50%-75% = +++) | 37 (ALINDILGELVKL; listed as Homo sapiens) [compound 37]
30 | +++ (50%-75% = +++) | 38 (KMQEDLVTL; listed as Homo sapiens) [compound 38]
31 | +++ (50%-75% = +++) | 39 (ALMAVVSGL; listed as Homo sapiens) [compound 39]
32 | +++ (50%-75% = +++) | 40 (SLLALPQDLQA; listed as Homo sapiens) [compound 40]
33 | +++ (50%-75% = +++) | 41 (FVLPLVVTL; listed as Homo sapiens) [compound 41]
34 | +++ (50%-75% = +++) | 42 (VLSPFILTL; listed as Homo sapiens) [compound 42]
35 | ++ (20%-49% = ++) | 44 (GLLWQIIKV; listed as Homo sapiens) [compound 44]
36 | +++ (50%-75% = +++) | 45 (VLGPTPELV; listed as Homo sapiens) [compound 45]
37 | +++ (50%-75% = +++) | 46 (SLAKHGIVAL; listed as Homo sapiens) [compound 46]
38 | +++ (50%-75% = +++) | 47 (GLYQAQVNL; listed as Homo sapiens) [compound 47]
39 | ++ (20%-49% = ++) | 48 (TLDHKPVTV; listed as Homo sapiens) [compound 48]
40 | +++ (50%-75% = +++) | 49 (LLDESKLTL; listed as Homo sapiens) [compound 49]
41 | ++ (20%-49% = ++) | 50 (EYALLYHTL; listed as Homo sapiens) [compound 50]

system: HLA-A*24; assay: MHC binding assay, UV-ligand exchange with beta2m ELISA (exchange yield), HLA-A*24; set-up: species or system human; settings: binding to HLA-A*24, UV-ligand exchange
How it was run: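 Peptide–MHC complexes formed by UV-ligand exchange: a UV-cleavable peptide is replaced by the test peptide, and only binders keep the complex stable. Exchange yield read by streptavidin-capture ELISA on reactions diluted 100-fold, detected with HRP anti-β2m (2 ug/ml, 1 h, 37° C) and TMB at 450 nm.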

Row | Peptide exchange (MHC class I binding score, peptide exchange yield) | Substance
42 | ++ (20%-49% = ++) | 362 (VYNYAEQTL; listed as Homo sapiens) [compound 362]
43 | +++ (50%-75% = +++) | 364 (KYLNENQLSQL; listed as Homo sapiens) [compound 364]
44 | +++ (50%-75% = +++) | 368 (KYQNVKHNL; listed as Homo sapiens) [compound 368]
45 | +++ (50%-75% = +++) | 369 (VYTHEVVTL; listed as Homo sapiens) [compound 369]
46 | +++ (50%-75% = +++) | 370 (RFIGIPNQF; listed as Homo sapiens) [compound 370]
47 | +++ (50%-75% = +++) | 372 (VYVIEPHSMEF; listed as Homo sapiens) [compound 372]
48 | +++ (50%-75% = +++) | 373 (GYISNGELF; listed as Homo sapiens) [compound 373]
49 | ++ (20%-49% = ++) | 374 (VFLPRVTEL; listed as Homo sapiens) [compound 374]
50 | +++ (50%-75% = +++) | 375 (KYTDYILKI; listed as Homo sapiens) [compound 375]
51 | +++ (50%-75% = +++) | 376 (VYTPVASRQSL; listed as Homo sapiens) [compound 376]
52 | +++ (50%-75% = +++) | 377 (QYTPHSHQF; listed as Homo sapiens) [compound 377]
53 | +++ (50%-75% = +++) | 378 (VYIAELEKI; listed as Homo sapiens) [compound 378]
54 | ++++ (>=75% = ++++) | 379 (VFIAQGYTL; listed as Homo sapiens) [compound 379]
55 | +++ (50%-75% = +++) | 381 (KYPASSSVF; listed as Homo sapiens) [compound 381]
56 | +++ (50%-75% = +++) | 382 (AYLPPLQQVF; listed as Homo sapiens) [compound 382]
57 | +++ (50%-75% = +++) | 383 (RYKPGEPITF; listed as Homo sapiens) [compound 383]
58 | +++ (50%-75% = +++) | 384 (RYFDVGLHNF; listed as Homo sapiens) [compound 384]
59 | +++ (50%-75% = +++) | 385 (QYIEELQKF; listed as Homo sapiens) [compound 385]
60 | +++ (50%-75% = +++) | 386 (TFSDVEAHF; listed as Homo sapiens) [compound 386]
61 | +++ (50%-75% = +++) | 387 (KYTEKLEEI; listed as Homo sapiens) [compound 387]
62 | +++ (50%-75% = +++) | 388 (IYGEKTYAF; listed as Homo sapiens) [compound 388]
